T1: recombinant human GPR1 receptor (human, UniProt P46091 1-355)
T1 sequence: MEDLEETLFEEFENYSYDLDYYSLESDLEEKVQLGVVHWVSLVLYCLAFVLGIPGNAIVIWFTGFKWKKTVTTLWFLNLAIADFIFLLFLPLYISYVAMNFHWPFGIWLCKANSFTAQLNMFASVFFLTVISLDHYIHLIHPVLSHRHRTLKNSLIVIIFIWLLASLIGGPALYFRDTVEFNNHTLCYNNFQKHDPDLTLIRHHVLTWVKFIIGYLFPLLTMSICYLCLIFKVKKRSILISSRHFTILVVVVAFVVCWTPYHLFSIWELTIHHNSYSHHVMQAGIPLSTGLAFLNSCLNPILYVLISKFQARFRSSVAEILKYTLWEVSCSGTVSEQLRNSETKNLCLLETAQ


Target: T1, recombinant human GPR1 receptor
Assay: cell-based or functional assay

| Molecule | EC50 of beta-arrestin2 recruitment (agonistic activity), CHO-K1-hGPR1-Beta-arrestin 2 PathHunter cells [nM] |
| --- | --- |
| d-Ser14-Humanin (peptide) | 92.8 |
| MAPRGFSCLLLLTGEIDLPVKRRA [Gly14-Humanin] | 46.1 |
| MAPRGFSCLLLLTSEIDLPVKRRA [Humanin] | 60.9 |
| MAPRGFSALLLLTSEIDLPVKRRA [Ala8-Humanin] | 55.6 |
